From US10494415B2, “Insulin-like growth factor 2 (IGF2) binding agents” (Cancer Research Technology Limited, priority 2015, dated 2019) come the findings set out here.

The test system of series [1] is IGF2^1-67-induced hypoglycaemia. The series is described as follows: IGF2-induced hypoglycaemia mouse model. The following applies: co-injected. The class given is in vivo. An excerpt:
All animal experiments were approved by the animal use ethical committee of Oxford University and fully complied with UK Home Office guidelines (PPL 30/2695). Wild-type C57BL/6J and 129S2 mice were used throughout. Mice were anaesthetised using a rising concentration of isoflurane in oxygenated air and maintained using 2% isoflurane with 2 L min^−1 oxygen. Blood glucose measurements were taken using an Advantage diabetic glucose meter (Roche Diagnostics, Burgess Hill, UK). In order to test the direct inhibition of IGF2-induced hypoglycaemia by Fc-domain 11^AB5, blood glucose levels were allowed to normalise for 30 min prior to taking a baseline blood glucose reading, then either 1 mg kg^−1 IGF2 only (R&D systems), […], Fc-domain 11^RHH, or Fc-domain 11^I1572A ([…]) was injected. Blood glucose measurements were taken every 10 min for the following hour. For the Fc-domain 11^AB5 mouse preloading experiment, 11.7 mg kg^−1 Fc-domain 11^AB5 or PBS, as negative control, was injected immediately after induction of anaesthesia, 30 mins later a baseline blood glucose reading was taken and 1 mg kg^−1 IGF2 ([…]) was injected, readings were then taken every 10 min for the following hour. For the mouse IGF2 preloading experiment, 1 mg kg^−1 IGF2 was injected immediately after induction of anaesthesia, 30 min later a baseline blood glucose reading was taken and either 11.7 mg kg^−1 Fc-domain 11^AB5 ([…]) or PBS was injected, readings were then taken every 10 min for the following hour.

A further series relates to SKNMC-IGF2^104 cells. Description: IGF2-TRAP synthetic lethality screen (resazurin viability). The class given is cell-based, human. To be noted: fixed concentration of IGF2-TRAP alone, assay end point of 72 hrs. On the procedure:
For synthetic lethality screens (Target Discovery Institute, University of Oxford), either 2,500 or 5,000 SKNMC-IGF2104-IRES-luc cells were plated in medium containing 0.5% charcoal stripped FBS in 384 well plates and the IGF2-TRAP was added 24 h later to half of the plates. Using automated dispensing 307 oncology drugs that have been tested in man (TDI expanded Oncology Drug library) were added to cells 3 hrs later 10 μM, 1 μM, 100 nM and 10 nM, in the presence and absence of 250 nM IGF2-TRAP. After 48 hr of incubation, resazurin was added to a final concentration of 10 μg/mL and the fluorescence (Ex: 560 nm, Em: 590 nm) recorded at 2 hr. […] Pearson's product-moment correlation coefficient (r) was calculated to determine replicate correlation. […]
The interaction score was calculated where v was the viability readout for the drug condition, x^− was the sample mean of the negative controls and s was the sample standard deviation of the negative controls, z was calculated as z_treatment=(v−x^−)/s. z_(no_IT) was calculated from PBS control plates, comparing ‘drug d’ to same-plate negative controls ‘cells+DMSO’. z_IT was calculated from treated plates, comparing ‘drug d+IGF2-TRAP (IT)’ to same-plate negative controls ‘cells+IT+DMSO’. […] Interaction scores were calculated for each replicate r_(d,1)/r_(d,2)/r_(d,3) independently. […]

B1: Fc-domain 11^AB5-RHH: Fc-fusion of domain 11^AB5-RHH (IGF2-TRAP); IgG2 Fc form purified from CHO cells used for xenografts (protein)
chain: NEHDDCQVTNPSTGHLFDLSSLSGRAGFTAAYAKGWGVYMSICGENENCPPGVGACFGRTRISVGKANKRLRYVDQVLQLVYKDGSHCPSKHGLSYKSVISFVCRPEAGPTNRPMLISLDKQTCTLFFSWHTPLACEQAT
modifications: left off: a dimerising Fc or GST
notes: Fc-fusion of domain 11^AB5-RHH (IGF2-TRAP); IgG2 Fc form purified from CHO cells used for xenografts
Take B1: the “IGF2-induced hypoglycaemia (blood glucose)” value in series [1] (molar ratio 1:0.23) is listed as “more efficient IGF2 antagonist than Fc-domain 11^AB5”; in series [1] (molar ratio 1:0.23, listed as domain 11^AB5-RHH), “significantly counteracted IGF2-induced hypoglycaemia”; in series [1] (molar ratio 1:0.5) it was “abrogation”. Besides, in the series with SKNMC-IGF2^104 cells, the “reduction in cell viability” value is listed as 10-20%.
